Reference: patent US20060160076A1

Target: CX3CR1 (endogenous, on 3T3-L1 adipocytes) (mouse) (UniProt Q9Z0D9)
Assay: cell-based or functional assay

Sequence of UniProt Q9Z0D9 (Q9Z0D9 whole entry): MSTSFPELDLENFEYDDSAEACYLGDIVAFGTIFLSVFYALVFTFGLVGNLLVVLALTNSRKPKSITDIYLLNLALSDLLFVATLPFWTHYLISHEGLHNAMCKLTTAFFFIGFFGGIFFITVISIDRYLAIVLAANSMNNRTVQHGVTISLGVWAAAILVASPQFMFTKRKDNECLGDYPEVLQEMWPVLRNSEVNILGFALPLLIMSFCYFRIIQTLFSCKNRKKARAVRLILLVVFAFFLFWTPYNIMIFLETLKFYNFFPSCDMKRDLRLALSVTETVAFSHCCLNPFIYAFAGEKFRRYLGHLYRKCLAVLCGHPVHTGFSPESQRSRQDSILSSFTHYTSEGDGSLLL

- fold change in glucose uptake over vehicle pretreatment alone; +1 nM FRA, +0.1 nM INS: 1.6 fold
- fold change in glucose uptake over vehicle pretreatment alone; +1 nM FRA, +1 nM INS: 1.6 fold
- fold change in glucose uptake over vehicle pretreatment alone; +1 nM FRA, +10 nM INS: 0.9 fold
- fold change in glucose uptake over vehicle pretreatment alone; +1 nM FRA, basal: 1.4 fold
- fold change in glucose uptake over vehicle pretreatment alone; +10 nM FRA, +0.1 nM INS: 1.9 fold
- fold change in glucose uptake over vehicle pretreatment alone; +10 nM FRA, +1 nM INS: 1.8 fold
- fold change in glucose uptake over vehicle pretreatment alone; +10 nM FRA, +10 nM INS: 0.9 fold
- fold change in glucose uptake over vehicle pretreatment alone; +10 nM FRA, basal: 1.3 fold
- fold change in glucose uptake over vehicle pretreatment alone; +100 nM FRA, +0.1 nM INS: 2 fold
- fold change in glucose uptake over vehicle pretreatment alone; +100 nM FRA, +1 nM INS: 1.3 fold
- fold change in glucose uptake over vehicle pretreatment alone; +100 nM FRA, +10 nM INS: 1.1 fold
- fold change in glucose uptake over vehicle pretreatment alone; +100 nM FRA, basal: 1.3 fold
- mean 2-DOG uptake value; 1 nM FRA+0.1 nM INS: 1090
- mean 2-DOG uptake value; 1 nM FRA+10 nM INS: 3660
- mean 2-DOG uptake value; 1 nM FRA+Basal: 544
- mean 2-DOG uptake value; 1 nM FRA+nM INS (so in the source): 3160
- mean 2-DOG uptake value; 10 nM FRA+0.1 nM INS: 1280
- mean 2-DOG uptake value; 10 nM FRA+1 nM INS: 3540
- mean 2-DOG uptake value; 10 nM FRA+10 nM INS: 3750
- mean 2-DOG uptake value; 10 nM FRA+Basal: 521
- mean 2-DOG uptake value; 100 nM FRA+0.1 nM INS: 1350
- mean 2-DOG uptake value; 100 nM FRA+1 nM INS: 2730
- mean 2-DOG uptake value; 100 nM FRA+10 nM INS: 4350
- mean 2-DOG uptake value; 100 nM FRA+Basal: 515
Substance: recombinant soluble fractalkine (ligand)
